Source: article PMC12748704

Target: Cy3-labeled human histone nucleosome core particle reconstituted on the Widom 601 sequence (human) (UniProt P62807)
Test: single-molecule fluorescence imaging on optical tweezers

“HaloTag-635-LIG3α (wild type, nuclear DNA ligase IIIα) (enzyme)” was tested. Which lifetime did it give?
Its lifetime is 24 s.
